Assay results reported in patent US20160297889A1 (TORAY INDUSTRIES, published 2016).

Molecular target: T1, CAPRIN-1 protein expressed on the membrane surface of human cancer cells (human, UniProt Q14444 2-709)
T1 sequence (looked up): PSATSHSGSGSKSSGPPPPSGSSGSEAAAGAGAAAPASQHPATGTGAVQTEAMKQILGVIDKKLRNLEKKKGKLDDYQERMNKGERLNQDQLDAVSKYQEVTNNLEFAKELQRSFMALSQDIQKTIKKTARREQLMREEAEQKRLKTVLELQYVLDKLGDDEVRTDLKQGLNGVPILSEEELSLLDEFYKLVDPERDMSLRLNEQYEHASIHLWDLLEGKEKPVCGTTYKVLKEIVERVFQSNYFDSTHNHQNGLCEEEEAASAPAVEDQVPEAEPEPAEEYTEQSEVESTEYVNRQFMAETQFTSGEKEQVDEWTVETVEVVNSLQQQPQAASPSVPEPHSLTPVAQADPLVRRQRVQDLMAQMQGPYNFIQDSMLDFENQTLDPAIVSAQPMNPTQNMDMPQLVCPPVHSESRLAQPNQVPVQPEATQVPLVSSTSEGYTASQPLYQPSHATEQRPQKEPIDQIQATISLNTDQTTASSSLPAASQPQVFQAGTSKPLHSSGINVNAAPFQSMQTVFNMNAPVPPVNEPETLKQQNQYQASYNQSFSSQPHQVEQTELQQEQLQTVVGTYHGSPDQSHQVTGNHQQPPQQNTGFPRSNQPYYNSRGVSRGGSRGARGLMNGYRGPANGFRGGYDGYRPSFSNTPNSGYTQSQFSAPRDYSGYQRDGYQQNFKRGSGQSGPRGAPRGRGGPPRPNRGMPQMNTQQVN
Assay: cell-based or functional assay

B1: human-rabbit chimeric anti-CAPRIN-1 antibody (antibody, V domains shown)
VH: QSLEESGGRLVTPGTPLTLTCTASGFSLSSHSLGWVRQAPGKGLEWIGDIRSGGSAYYANWAKGRFTISRTSTTVALKMTSLTTEDTATYFCTRTNGPSDLTNRLDLWGQGTLVTVSS
VL: QVLTQTPSSVSAAVGGTVTINCQASQSLYNNENLAWFQQKPGQPPKRLIYGASTLASGVSSRFKGSGSGTQFTLTIGDVQCDDAAIYYCLGEFSCGSADCFAFGGGTEVVVK
**Q.** Which “ADCC cytotoxic activity (51Cr release) on 22Rv1” value does the source give for B1 here?
**A.** Its value is no less than 38%.

**Q.** What about the “ADCC cytotoxic activity (51Cr release) on A-673” value of the same binder?
**A.** Its value is no less than 40%.

**Q.** And the “ADCC cytotoxic activity (51Cr release) on BT-474” value?
**A.** The value was no less than 46%.

**Q.** And the “ADCC cytotoxic activity (51Cr release) on Caki-2” value?
**A.** Its value is no less than 26%.

**Q.** What about the “ADCC cytotoxic activity (51Cr release) on FaDu” value of the same binder?
**A.** Its value is no less than 35%.

**Q.** What about the “ADCC cytotoxic activity (51Cr release) on G-361” value of the same binder?
**A.** Its value is no less than 15%.

**Q.** And the “ADCC cytotoxic activity (51Cr release) on HEC-1-A” value?
**A.** The value was no less than 40%.

**Q.** And the “ADCC cytotoxic activity (51Cr release) on HT-29” value?
**A.** The value was no less than 35%.

**Q.** And the “ADCC cytotoxic activity (51Cr release) on HT-1080” value?
**A.** The value was no less than 20%.

**Q.** What about the “ADCC cytotoxic activity (51Cr release) on HT-1376” value of the same binder?
**A.** The value was no less than 28%.

**Q.** And the “ADCC cytotoxic activity (51Cr release) on Hep3B” value?
**A.** Its value is no less than 21%.

**Q.** And the “ADCC cytotoxic activity (51Cr release) on IM-9” value?
**A.** Its value is no less than 27%.

**Q.** What about the “ADCC cytotoxic activity (51Cr release) on MDA-MB-361” value of the same binder?
**A.** Its value is no less than 40%.

**Q.** And the “ADCC cytotoxic activity (51Cr release) on NCI-H2452” value?
**A.** Its value is no less than 31%.

**Q.** What about the “ADCC cytotoxic activity (51Cr release) on NCI-N87” value of the same binder?
**A.** Its value is no less than 34%.

**Q.** What about the “ADCC cytotoxic activity (51Cr release) on NT/D1” value of the same binder?
**A.** The value was no less than 25%.

**Q.** And the “ADCC cytotoxic activity (51Cr release) on OCI-AML5” value?
**A.** The value was no less than 15%.

**Q.** And the “ADCC cytotoxic activity (51Cr release) on OE33” value?
**A.** The value was no less than 30%.

**Q.** What about the “ADCC cytotoxic activity (51Cr release) on Panc10.5” value of the same binder?
**A.** Its value is no less than 24%.

**Q.** And the “ADCC cytotoxic activity (51Cr release) on QG56” value?
**A.** The value was no less than 38%.

**Q.** What about the “ADCC cytotoxic activity (51Cr release) on RD-ES” value of the same binder?
**A.** The value was no less than 31%.

**Q.** What about the “ADCC cytotoxic activity (51Cr release) on RPM11666” value of the same binder?
**A.** The value was no less than 30%.

**Q.** And the “ADCC cytotoxic activity (51Cr release) on Ramos” value?
**A.** Its value is no less than 15%.

**Q.** And the “ADCC cytotoxic activity (51Cr release) on SKOV3” value?
**A.** Its value is no less than 27%.

**Q.** And the “ADCC cytotoxic activity (51Cr release) on T24” value?
**A.** The value was no less than 30%.

**Q.** What about the “ADCC cytotoxic activity (51Cr release) on TGBC14TKB” value of the same binder?
**A.** Its value is no less than 25%.

**Q.** What about the “ADCC cytotoxic activity (51Cr release) on TT” value of the same binder?
**A.** The value was no less than 30%.

**Q.** What about the “ADCC cytotoxic activity (51Cr release) on U-87MG” value of the same binder?
**A.** The value was no less than 24%.

B2: humanized antibody #8 (antibody, V domains shown)
VH: QSLVESGGGLVQPGGSLRLSCAASGFSLSSHSLGWVRQAPGKGLEWIGDIRSGGSAYYANWAKGRFTISRTSSKNTVYLQMNSLRAEDTAVYFCTRTNGPSDLTNRLDLWGQGTLVTVSS
VL: QVLTQSPSSLSASVGDRVTINCQASQSLYNNENLAWFQQKPGKVPKRLIYGASTLASGVSSRFSGSGSGTEFTLTISSLQCEDFAIYYCLGEFSCGSADCFAFGGGTKVEIK
**Q.** B2 was tested. Which “ADCC cytotoxic activity (51Cr release) on 22Rv1” value did it give?
**A.** Its value is no less than 38%.

**Q.** And the “ADCC cytotoxic activity (51Cr release) on A-673” value?
**A.** The value was no less than 40%.

**Q.** What about the “ADCC cytotoxic activity (51Cr release) on BT-474” value of the same binder?
**A.** The value was no less than 46%.

**Q.** What about the “ADCC cytotoxic activity (51Cr release) on Caki-2” value of the same binder?
**A.** The value was no less than 26%.

**Q.** What about the “ADCC cytotoxic activity (51Cr release) on FaDu” value of the same binder?
**A.** Its value is no less than 35%.

**Q.** And the “ADCC cytotoxic activity (51Cr release) on G-361” value?
**A.** The value was no less than 15%.

**Q.** What about the “ADCC cytotoxic activity (51Cr release) on HEC-1-A” value of the same binder?
**A.** The value was no less than 40%.

**Q.** And the “ADCC cytotoxic activity (51Cr release) on HT-29” value?
**A.** The value was no less than 35%.

**Q.** What about the “ADCC cytotoxic activity (51Cr release) on HT-1080” value of the same binder?
**A.** The value was no less than 20%.

**Q.** What about the “ADCC cytotoxic activity (51Cr release) on HT-1376” value of the same binder?
**A.** The value was no less than 28%.

**Q.** What about the “ADCC cytotoxic activity (51Cr release) on Hep3B” value of the same binder?
**A.** The value was no less than 21%.

**Q.** What about the “ADCC cytotoxic activity (51Cr release) on IM-9” value of the same binder?
**A.** Its value is no less than 27%.

**Q.** What about the “ADCC cytotoxic activity (51Cr release) on MDA-MB-361” value of the same binder?
**A.** Its value is no less than 40%.

**Q.** And the “ADCC cytotoxic activity (51Cr release) on NCI-H2452” value?
**A.** Its value is no less than 31%.

**Q.** And the “ADCC cytotoxic activity (51Cr release) on NCI-N87” value?
**A.** The value was no less than 34%.

**Q.** And the “ADCC cytotoxic activity (51Cr release) on NT/D1” value?
**A.** Its value is no less than 25%.

**Q.** What about the “ADCC cytotoxic activity (51Cr release) on OCI-AML5” value of the same binder?
**A.** Its value is no less than 15%.

**Q.** What about the “ADCC cytotoxic activity (51Cr release) on OE33” value of the same binder?
**A.** Its value is no less than 30%.

**Q.** And the “ADCC cytotoxic activity (51Cr release) on Panc10.5” value?
**A.** The value was no less than 24%.

**Q.** And the “ADCC cytotoxic activity (51Cr release) on QG56” value?
**A.** The value was no less than 38%.

**Q.** What about the “ADCC cytotoxic activity (51Cr release) on RD-ES” value of the same binder?
**A.** Its value is no less than 31%.

**Q.** And the “ADCC cytotoxic activity (51Cr release) on RPM11666” value?
**A.** Its value is no less than 30%.

**Q.** What about the “ADCC cytotoxic activity (51Cr release) on Ramos” value of the same binder?
**A.** Its value is no less than 15%.

**Q.** What about the “ADCC cytotoxic activity (51Cr release) on SKOV3” value of the same binder?
**A.** The value was no less than 27%.

**Q.** And the “ADCC cytotoxic activity (51Cr release) on T24” value?
**A.** Its value is no less than 30%.

**Q.** And the “ADCC cytotoxic activity (51Cr release) on TGBC14TKB” value?
**A.** Its value is no less than 25%.

**Q.** And the “ADCC cytotoxic activity (51Cr release) on TT” value?
**A.** Its value is no less than 30%.

**Q.** And the “ADCC cytotoxic activity (51Cr release) on U-87MG” value?
**A.** Its value is no less than 24%.
